Results reported in patent publication US20190241662A1 (ADAGENE, published 2019).

Key:
[1] = target: T1, recombinant human CTLA4-Fc (human, UniProt P16410 36-162); assay: ELISA, coated human CTLA4-Fc
T1 construct: also called human CTLA4 fused with human FC fragment; CTLA4-Fc (Sino Biological, 11159-H03H)
T1 sequence (looked up): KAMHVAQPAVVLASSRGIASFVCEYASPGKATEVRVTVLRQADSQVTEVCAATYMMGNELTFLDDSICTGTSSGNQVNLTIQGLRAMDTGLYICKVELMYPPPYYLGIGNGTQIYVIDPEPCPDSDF
Experimental: (§1) The ability of certain IgG antibodies to bind to soluble human (FIG. 1A, Table 5A) or canine (FIG. 1B, Table 5B) CTLA4 was next tested. 1 μg/mL human CTLA4 fused with human FC fragment, or canine CTLA4 fused with His tag, were prepared and used to coat an ELISA plate at 2-8° C. overnight. After blocking, 100 μL serial diluted IgG antibodies were added and incubated at 37° C. for 1 hour. Plates were washed for four times and then incubated with HRP-anti human IgG (Fab specific) (1:6000 dilution) at 37° C. for 1 hour. Plates were washed again four times and incubated with TMB substrate for 15 minutes at room temperature. […] The data was analyzed by Graphpad Prism 6 with nonlinear fitting.

[2] = target: T2, canine CTLA4 fused with His tag (canine, UniProt Q9XSI1 36-162, limits assumed); assay: ELISA, coated canine CTLA4-His
T2 construct: also called dog CTLA4
T2 sequence (looked up): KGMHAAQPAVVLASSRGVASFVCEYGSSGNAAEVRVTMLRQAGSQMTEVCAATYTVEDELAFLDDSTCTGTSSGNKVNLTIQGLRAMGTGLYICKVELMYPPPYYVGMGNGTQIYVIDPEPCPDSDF
Experimental: as §1

[3] = target: T3, recombinant human CTLA4 protein (construct not stated) (human, UniProt P16410 36-162, limits assumed); assay: SPR (Biacore T200), IgG captured by anti-human Fc
T3 construct: also called biotinylated human CTLA4; human recombinant CTLA4 proteins
T3 sequence (looked up): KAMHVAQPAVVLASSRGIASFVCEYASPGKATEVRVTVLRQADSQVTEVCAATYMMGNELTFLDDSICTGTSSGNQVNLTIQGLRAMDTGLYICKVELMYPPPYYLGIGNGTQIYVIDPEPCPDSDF
Description: (§2) Binding affinity and kinetics of antibodies against human, monkey and mouse CTLA4 were examined (Table 4) by surface plasmon resonance (SPR) analysis using a Biacore™ T200 instrument (Biacore AB, Uppsala, Sweden) according to the manufacturer's guidelines. Anti-Human IgG (Fc) antibody from Human Antibody Capture Kit (GE BR-1008-39) was immobilized on CM5 chips by coupling of its amine groups onto carboxylated surfaces of sensor chips according to the instructions of an Amine Coupling kit (GE Biacore #BR-1000-50). […] The association and dissociation curves were fitted to a 1:1 Langmuir binding model using Biacore T200 Evaluation Software (Biacore AB) according to the manufacturer's guidelines.

[4] = target: T4, monkey CTLA4 (SPR analyte, construct not stated) (monkey, UniProt G7PL88 36-161); assay: SPR (Biacore T200), IgG captured by anti-human Fc
T4 sequence: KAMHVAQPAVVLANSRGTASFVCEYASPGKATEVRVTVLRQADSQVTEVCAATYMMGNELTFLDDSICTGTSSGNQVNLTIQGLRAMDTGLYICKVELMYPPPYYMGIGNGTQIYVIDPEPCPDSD
Description: as §2

[5] = target: T5, recombinant human CTLA4 fused with human Fc and His tag (human, UniProt P16410 36-162, limits assumed); assay: competition ELISA: plate-bound human CTLA4-Fc-His, biotinylated CD80 as blocked ligand
T5 construct: Coated in the CD80 ELISA, biotinylated and in solution in the CD86 ELISA; also called biotinylated human CTLA4 fused with human FC and His tag
T5 sequence (looked up): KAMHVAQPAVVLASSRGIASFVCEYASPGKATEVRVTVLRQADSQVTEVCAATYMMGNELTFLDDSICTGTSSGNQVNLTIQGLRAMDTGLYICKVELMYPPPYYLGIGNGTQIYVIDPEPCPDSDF
Experimental: Antibodies were then tested for their ability to block binding of CTLA4 to its cognate ligands CD80 and CD86 by ELISA. […] Plates were blocked with PBS supplemented with 2% (w/v) skim milk at 37° C. for 1 hour. […] Plates were washed four times, and 100 μL HRP-neutravidin (1:1000) was added to each well and incubated at 37° C. for 1 hour. Plates were washed as previously described, and 50 μL TMB substrate solution was added and incubated at room temperature for 5 minutes before the reaction was stopped by 50 μL sulfate acid (2M).

[6] = target: T6, full-length human CTLA4 expressed on cells (human, UniProt P16410 36-223); assay: cell-based or functional assay
T6 sequence (looked up): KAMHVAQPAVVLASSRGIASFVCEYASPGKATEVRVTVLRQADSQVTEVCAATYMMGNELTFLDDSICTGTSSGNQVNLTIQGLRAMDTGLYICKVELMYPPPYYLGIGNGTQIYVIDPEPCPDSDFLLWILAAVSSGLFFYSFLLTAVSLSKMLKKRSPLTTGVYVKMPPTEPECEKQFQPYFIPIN

[7] = target: mouse CTLA4 (SPR analyte, construct not stated) (mouse, UniProt P09793 36-162, limits assumed); assay: SPR (Biacore T200), IgG captured by anti-human Fc
Description: as §2

[8] = target: T5, recombinant human CTLA4 fused with …; assay: competition ELISA: plate-bound human CD86-Fc, biotinylated human CTLA4-Fc-His in solution
Experimental: Plates were blocked with PBS supplemented with 2% (w/v) skim milk at 37° C. for 1 hour. […] Plates were washed four times, and 100 μL HRP-neutravidin (1:1000) were added to each well and incubated at 37° C. for 1 hr. Plates were washed as previously described, and 50 μL TMB substrate solution was added and incubated at room temperature for 5 minutes before the reaction was stopped by 50 μL sulfate acid (2M).

[9] = target: T6, full-length human CTLA4 expressed on …; assay: flow cytometry, transfected HEK293F cells, 100 nM antibody [Cont.]
Experimental: Antibody selectivity was next examined. Human CTLA4, PD1, LAG3, Tim3, B7H3, CD95, TNFR1, OX40, CD40, PD-L1, BLTA, VISTA, PDL2, ICOS and B7H4 were transiently overexpressed on the surface of HEK293F cells. Transfected cells were washed in pre-chilled 1×PBSA buffer (1.76 mM KH2PO4, 10.14 mM Na2HPO4.12H2O, 2.68 mM KCl, 136.89 mM NaCl and 1% BSA), then incubated with 100 nM test antibodies for 1 hour on ice. Cells were washed once with staining buffer, and Alexa Fluor® 647 conjugated mouse anti-human FC antibodies were added and incubated for 30 minutes on ice, protected from light. Samples were washed once with staining buffer prior to analysis by flow cytometry.

| Binder | EC50 [1] [nM] | Kd [1] [nM] | LogEC50 [1] | EC50 [2] [nM] | Kd [2] [nM] | LogEC50 [2] | Kd [3] [nM] | Kd [4] [nM] | IC50 (read off the curve) [5] [nM] | EC50 for ADCC reporter signaling (Jurkat/NFAT-Luc/CD16 with HEK293F/hCTLA4 cells) [6] [µg/mL] | Kd [7] [nM] | IC50 (read off the curve) [8] [nM] | % of cells in upper right quadrant (Q2) [9] | Mean [9] |
| --- | --- | --- | --- | --- | --- | --- | --- | --- | --- | --- | --- | --- | --- | --- |
| TY21591 (antibody, V domains shown, human IgG1 (hIgG1) from Fab hit B15756) VH: EVQLVESGGGLVQPGGSLRLSCAASGFSLSTGGVAVSWIRQAPGKGLEWIGEIYHSGSTYYSPSLKSRVTISRDNSKNTLYLQLNSLRAEDTAVYYCARRIATATYFDYWGQGTLVTVSS VL: DIQLTQSPSSLSASVGDRVTITCRASQTVFSRYLAWYQQKPGKAPKLLIYDASNRATGIPSRFSGSGSGTDFTLTISSLQPEDFATYYCQQSYYWPPWTFGQGTKVEIK | 0.831 | 0.83 | -9.08 | 0.707 | 0.71 | -9.15 | 9.68 | 3.27 | ~10 | – | – | – | – | – |
| TY21691 (antibody, V domains shown, human IgG1 (hIgG1) from Fab hit B15736) VH: EVQLVESGGGLVQPGGSLRLSCAASGFTFSDYAIHWVRQAPGKGLEWIGIISPSGGSTKYAQKFQGRVTISRDNSKNTLYLQLNSLRAEDTAVYYCARLGYGYFDVWGQGTLVTVSS VL: DIQLTQSPSSLSASVGDRVTITCRASQSVDFYGISFLHWYQQKPGKAPKLLIYDASSLESGVPSRFSGSGSGTDFTLTISSLQPEDFATYYCVQALQLPLTFGQGTKVEIK | – | – | – | – | – | – | 2.08 | 2.44 | ~20 | > 10 | 1.46 | ~20 | – | – |
| TY21687 (antibody, V domains shown, human IgG1 (hIgG1) from Fab hit B15700) VH: EVQLVESGGGLVQPGGSLRLSCAASGFTFSGYAIHWVRQAPGKGLEWIGIISPSGGGTKYAQKFQGRVTISRDNSKNTLYLQLNSLRAEDTAVYYCARHPFAYWGQGTLVTVSS VL: DIQLTQSPSSLSASVGDRVTITCRASQSVDFYGISFLDWYQQKPGKAPKLLIYDASNRATGIPSRFSGSGSGTDFTLTISSLQPEDFATYYCQQYVSSPPEYTFGQGTKVEIK | 0.32 | 0.32 | -9.49 | 0.745 | 0.75 | -9.13 | 1.82 | 1.52 | ~20 | 9.5 | 2.76 | ~10 | 75.7% | – |
| TY21585 (antibody, V domains shown, human IgG1 (hIgG1) from Fab hit B15709) VH: EVQLVESGGGLVQPGGSLRLSCAASGFTFSDYAIHWVRQAPGKGLEWIGIISPSSGSTNYAQKFQGRVTISRDNSKNTLYLQLNSLRAEDTAVYYCARDIHSGSSGYYYGFDVWGQGTLVTVSS VL: DIQLTQSPSSLSASVGDRVTITCRASESVDFFGISFLAWYQQKPGKAPKLLIYDASNRATGIPSRFSGSGSGTDFTLTISSLQPEDFATYYCQHYTSSPPVYTFGQGTKVEIK | 0.555 | 0.56 | -9.26 | 6.04 | 6.05 | -8.22 | 8.15 | 8.26 | ~10 | – | 1.71 | – | 36.3 | 6190 |
